Source: IntAct's records for PubMed 15070730

B1: Tumor protein p73 (Homo sapiens), O15350-2 (parent)
chain: MAQSTATSPDGGTTFEHLWSSLEPDSTYFDLPQSSRGNNEVVGGTDSSMDVFHLEGMTTSVMAQFNLLSSTMDQMSSRAASASPYTPEHAASVPTHSPYAQPSSTFDTMSPAPVIPSNTDYPGPHHFEVTFQQSSTAKSATWTYSPLLKKLYCQIAKTCPIQIKVSTPPPPGTAIRAMPVYKKAEHVTDVVKRCPNHELGRDFNEGQSAPASHLIRVEGNNLSQYVDDPVTGRQSVVVPYEPPQVGTEFTTILYNFMCNSSCVGGMNRRPILIIITLEMRDGQVLGRRSFEGRICACPGRDRKADEDHYREQQALNESSAKNGAASKRAFKQSPPAVPALGAGVKKRRHGDEDTYYLQVRGRENFEILMKLKESLELMELVPQPLVDSYRQQQQLLQRPSHLQPPSYGPVLSPMNKVHGGMNKLPSVNQLVGQPPPHSSAATPNLGPVGPGMLNNHGHAVPANGEMSSSHSAQSMVSGSHCTPPPPYHADPSLVRTWGP
partner: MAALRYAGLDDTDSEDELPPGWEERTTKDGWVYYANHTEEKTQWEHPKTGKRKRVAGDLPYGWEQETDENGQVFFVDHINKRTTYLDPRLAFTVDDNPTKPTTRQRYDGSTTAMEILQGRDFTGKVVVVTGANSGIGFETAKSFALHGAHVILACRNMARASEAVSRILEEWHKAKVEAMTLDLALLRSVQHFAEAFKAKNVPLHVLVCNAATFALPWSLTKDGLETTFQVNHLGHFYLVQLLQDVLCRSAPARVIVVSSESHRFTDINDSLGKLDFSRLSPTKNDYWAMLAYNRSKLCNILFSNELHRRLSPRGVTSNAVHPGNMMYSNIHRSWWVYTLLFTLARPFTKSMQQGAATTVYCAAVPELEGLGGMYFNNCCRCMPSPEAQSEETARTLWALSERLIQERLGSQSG
B2: WW domain-containing oxidoreductase (Homo sapiens), Q9NZC7 (parent)
chain: B1 partner
partner: B1 chain

Variants of: B1
Conditions: with wwox_human WWOX, Q9NZC7

| Variant | effect of a mutation on the interaction |
| --- | --- |
| Y487A | disrupting interaction strength |

Variants of: B2
Conditions: with TP73, O15350-2

| Variant | effect of a mutation on the interaction |
| --- | --- |
| Y61R | with no effect |
| Y33R | disrupting interaction strength |

Variants of: B2
Conditions: with TP73, O15350-2
Remark: another data set of the same source

| Variant | effect of a mutation on the interaction |
| --- | --- |
| Y33F | with no effect |
| Y33R | decreasing interaction strength |
